This is an account of results in US20220332804A1 (CSL INNOVATION, published 2022).

Common to all, as to assay: SPR, antibody captured, C2 as analyte;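 also: biacore SPR at 37 °C, anti-C2 mAbs captured via goat anti-human IgG on CM5 chips, double-referenced sensorgrams fit to a 1:1 kinetic or steady-state model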
In one experiment the target is T1, human C2 L453A (human, UniProt P06681 21-752).
T1 sequence: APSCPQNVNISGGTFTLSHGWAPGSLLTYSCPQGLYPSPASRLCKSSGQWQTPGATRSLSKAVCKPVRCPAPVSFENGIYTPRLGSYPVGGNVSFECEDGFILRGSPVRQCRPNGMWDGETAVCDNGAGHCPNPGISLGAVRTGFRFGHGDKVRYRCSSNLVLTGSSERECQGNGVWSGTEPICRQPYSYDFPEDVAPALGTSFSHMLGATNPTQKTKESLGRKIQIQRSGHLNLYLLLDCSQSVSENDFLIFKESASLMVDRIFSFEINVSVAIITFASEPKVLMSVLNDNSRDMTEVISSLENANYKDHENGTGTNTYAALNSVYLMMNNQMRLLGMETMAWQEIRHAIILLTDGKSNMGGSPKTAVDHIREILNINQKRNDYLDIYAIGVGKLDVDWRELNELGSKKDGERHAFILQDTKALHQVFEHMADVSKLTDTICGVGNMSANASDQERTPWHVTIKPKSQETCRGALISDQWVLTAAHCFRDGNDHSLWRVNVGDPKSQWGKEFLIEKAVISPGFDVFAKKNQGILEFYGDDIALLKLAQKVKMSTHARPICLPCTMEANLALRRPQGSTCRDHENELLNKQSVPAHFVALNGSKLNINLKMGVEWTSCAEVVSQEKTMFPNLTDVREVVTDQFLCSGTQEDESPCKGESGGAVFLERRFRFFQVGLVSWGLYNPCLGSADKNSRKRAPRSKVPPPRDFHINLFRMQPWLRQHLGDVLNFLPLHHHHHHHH

Another experiment has as its target T2, human C2 K244A (human, UniProt P06681 21-752).
T2 sequence: T1 sequence with K224A, A433L

The target in a further experiment is T3, human C2 K443A (human, UniProt P06681 21-752).
T3 sequence: T1 sequence with K423A, A433L

The target in another experiment is T4, human C2 D417A (human, UniProt P06681 21-752).
T4 sequence: T1 sequence with D397A, A433L

Numbering of substitutions follows the chain as printed.

B1: RF16-226 (antibody, human IgG4 S228P, lambda)
heavy: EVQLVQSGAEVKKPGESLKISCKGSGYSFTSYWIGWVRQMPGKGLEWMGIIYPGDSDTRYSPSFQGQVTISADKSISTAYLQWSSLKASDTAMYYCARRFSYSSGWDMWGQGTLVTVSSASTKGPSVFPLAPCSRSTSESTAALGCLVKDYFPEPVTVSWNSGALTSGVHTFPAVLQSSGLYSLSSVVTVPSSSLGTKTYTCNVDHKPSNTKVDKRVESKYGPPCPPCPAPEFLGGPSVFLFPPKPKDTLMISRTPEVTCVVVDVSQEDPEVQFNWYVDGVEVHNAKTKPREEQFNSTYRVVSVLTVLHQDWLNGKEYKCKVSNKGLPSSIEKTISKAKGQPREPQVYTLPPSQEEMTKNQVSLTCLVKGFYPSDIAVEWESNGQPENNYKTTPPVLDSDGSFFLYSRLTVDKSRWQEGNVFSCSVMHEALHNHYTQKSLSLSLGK
light: SYELTQPPSVSVSPGQTARITCSGDALTSKYVAWYQQKSGLAPLLVIYEDTRRPSGIPAKFSGSSSGSVATLTISGAHGDDEADYYCYSTDASGHQRVFGGGTKLTVLSQPKAAPSVTLFPPSSEELQANKATLVCLISDFYPGAVTVAWKADGSPVKAGVETTKPSKQSNNKYAASSYLSLTPEQWKSHRSYSCQVTHEGSTVEKTVAPTECS
notes: pH-dependent anti-C2 antibody from a phage display library; also called WT
Take B1: the Kd stood at 0.0299 µM in the experiment with human C2 L453A, 0.0227 µM with human C2 K244A and 0.0179 µM in the experiment with human C2 D417A. Also, the binding result with human C2 K443A is listed as “no binding”.
